Measurements as given in US20140080766.

Test system: E6N2 (E6 Fn3-mouse IgG2a Fc-human PKR dsRBD fusion, homodimer) C121V,C135V (in dsRBD) (Homo sapiens)
Assay: flow
Details: KD,app; E6N2 on Protein A beads; DMEM+10% FBS, 37 C, 1 h; pH presumably 7.4; avidity from bivalent dsRBD

AllStars Negative Control siRNA (Qiagen)
Kd: 3.5 nM
